One block for each substance: values may come before it.
How the values were obtained:
[1] = target: CREB-bZIP (bZIP domain of human CREB1, residues 277-339 of CREB-A) (human); assay: stopped-flow intrinsic tyrosine fluorescence, urea refolding kinetics
CREB-bZIP-L318V (human) [2] = assay: other fluorescence titration
CREB-bZIP-L318V (human) [3] = assay: stopped-flow fluorescence out-competition
CREB-bZIP-L332V (human) = assay: other fluorescence titration

- Kd [1]: 5.7 nM
- koff [1]: 0.029 s⁻¹
- kon [1]: 1e+07 M⁻¹ s⁻¹
Substance: CREB-bZIP (bZIP domain of human CREB1, residues 277-339 of CREB-A) (domain or fragment)

- fold increase of Kd,M-M against CREB-bZIP (CREB-bZIP-L318V (human) [2]): 1000 fold
- k+,M-M.CRE (association of a monomer with CRE-bound monomer, inferred) (CREB-bZIP-L318V (human) [3]): 5e+09 M⁻¹ s⁻¹
- k-,M-M.CRE (dissociation of a monomer from the CRE-bound dimer) (CREB-bZIP-L318V (human) [3]): 0.079 s⁻¹
Substance: CREB-bZIP-L318V (domain or fragment)

- fold increase of Kd,M-M against CREB-bZIP (CREB-bZIP-L332V (human)): 100 fold
Substance: CREB-bZIP-L332V (domain or fragment)

Reference: doi:10.1101/2025.08.25.672131
